Experimental data from publication PMC3120129 (Biochemistry, 2011).
Each block holds one molecule with its values, some of them ahead of it.

What was measured:
[1] = biological target: E2 domain of amyloid precursor protein (APP), construct APP_(346–548), native (human) (UniProt P05067); test: AUC
crystal structure = biological target: the molecule itself; test: crystal structure

- Kd [1]: 9.2 µM
- stoichiometry N [1]: 2
Molecule: E2 domain of amyloid precursor protein (APP), construct APP_(346–548), native (from UniProt P05067-8 346-548) (domain or fragment)

B1: E2 domain of APLP1, construct APLP1_(285–499) (crystallised) (domain or fragment, human, UniProt P51693 285-499, looked up)
chain: TPTPRPTDGVDIYFGMPGEISEHEGFLRAKMDLEERRMRQINEVMREWAMADNQSKNLPKADRQALNEHFQSILQTLEEQVSGERQRLVETHATRVIALINDQRRAALEGFLAALQADPPQAERVLLALRRYLRAEQKEQRHTLRHYQHVAAVDPEKAQQMRFQVHTHLQVIEERVNQSLGLLDQNPHLAQELRPQIQELLHSEHLGPSELEAPA
- binding result (crystal structure): binds
